Results on two substances are retold here after patent publication US20020177126A1.

Assay [1] concerns the target RSV F glycoprotein (NUF4) (respiratory syncytial virus (RSV)) (UniProt P03420). Kind of assay: BIAcore, Mab vs NUF4, 1:1. In general terms: SPR reads the build-up and loss of mass on a sensor chip optically.
For assay [2] the target is unchanged. Kind of assay: BIAcore, Mab vs NUF4, 2:1.
For assay [3] the target is unchanged. Kind of assay: ITC, NUF4 titrated into antibody.
Assay [4] has the same target. Kind of assay: ITC, NUF4 titrated into antibody, 35 °C. Background: In ITC the heat of successive injections is recorded.

Sequence of A4B4 (monoclonal antibody) (VH): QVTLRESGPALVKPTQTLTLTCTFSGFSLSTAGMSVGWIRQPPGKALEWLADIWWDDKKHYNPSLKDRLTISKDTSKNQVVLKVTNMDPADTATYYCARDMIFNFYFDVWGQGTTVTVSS
Sequence of A4B4 (monoclonal antibody) (VL): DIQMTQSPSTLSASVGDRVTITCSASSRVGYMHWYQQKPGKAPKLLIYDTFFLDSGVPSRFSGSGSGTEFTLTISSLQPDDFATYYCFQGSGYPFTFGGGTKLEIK
Sequence of RSV F glycoprotein (NUF4) (respiratory syncytial virus (RSV)) (P03420 26-524): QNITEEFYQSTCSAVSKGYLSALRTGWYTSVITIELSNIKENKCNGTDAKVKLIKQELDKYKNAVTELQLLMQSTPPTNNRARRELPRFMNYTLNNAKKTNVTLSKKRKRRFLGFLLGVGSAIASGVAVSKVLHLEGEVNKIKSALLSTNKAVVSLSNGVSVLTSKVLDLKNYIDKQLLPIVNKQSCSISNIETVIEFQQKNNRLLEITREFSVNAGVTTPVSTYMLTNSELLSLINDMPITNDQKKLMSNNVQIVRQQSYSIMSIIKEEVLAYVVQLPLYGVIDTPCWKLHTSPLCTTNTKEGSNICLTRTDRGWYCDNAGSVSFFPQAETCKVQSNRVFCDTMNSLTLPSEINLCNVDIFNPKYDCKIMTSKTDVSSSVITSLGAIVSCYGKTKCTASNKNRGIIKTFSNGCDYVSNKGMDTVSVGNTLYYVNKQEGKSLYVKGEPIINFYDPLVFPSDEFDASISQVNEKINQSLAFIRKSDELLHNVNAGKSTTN
Sequence of SYNAGIS® (antibody) (VH): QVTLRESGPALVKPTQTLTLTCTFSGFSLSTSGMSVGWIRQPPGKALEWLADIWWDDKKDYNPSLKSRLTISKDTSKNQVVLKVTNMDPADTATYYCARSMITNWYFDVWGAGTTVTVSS
Sequence of SYNAGIS® (antibody) (VL): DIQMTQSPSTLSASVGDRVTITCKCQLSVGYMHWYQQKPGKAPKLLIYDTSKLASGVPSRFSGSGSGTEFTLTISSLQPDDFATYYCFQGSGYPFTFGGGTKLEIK

Broadly, the Kd is the constant that tells how readily two partners part at equilibrium. Read a low Kd as higher affinity. As usually defined, the koff is a measure of how fast the partners let go of each other. High values mean a short-lived complex, low ones a long-lived complex. The kon is a measure of how fast the partners come together. High values mean fast association, low ones slow association. A4B4 (monoclonal antibody): in assay [1], the Kd was found to be 0.57 nM, the koff is 0.000282 s⁻¹, the kon was found to be 496000 M⁻¹ s⁻¹ and the number in parentheses after KD (fold vs SYNAGIS) stood at 15 fold. In addition, in assay [2], the Kd amounted to 2 nM, the koff was 0.000401 s⁻¹, the kon stood at 203000 M⁻¹ s⁻¹ and the number in parentheses after KD (fold vs SYNAGIS) amounted to 156 fold. The substance further came in with a Hb in kJ mol^-1 (binding enthalpy) in assay [3] of 22.2 kcal/mol. In assay [4], the Ka is 2.69e+08 M⁻¹ and the Kd is 3.7 nM.

For the substance SYNAGIS® (antibody), in assay [1], the Kd is 8.7 nM, the koff was determined as 0.00265 s⁻¹, the kon is 304000 M⁻¹ s⁻¹ and the number in parentheses after KD (fold vs SYNAGIS) is 1 fold. For the same substance, in assay [2], the Kd was 312 nM, the koff is 0.0242 s⁻¹, the kon amounted to 78000 M⁻¹ s⁻¹ and the number in parentheses after KD (fold vs SYNAGIS) stood at 1 fold. The Hb in kJ mol^-1 (binding enthalpy) in assay [3] turned out to be 17 kcal/mol. The Ka in assay [4] is 1.23e+06 M⁻¹.
